{"source": "the DeepSol protein solubility set"}
{"assay": "soluble on expression in E. coli; label from the status in PepcDB or PDB records"}
{"sequence": "MSLRRIGITQRLLETREYIETREALDVRWGELFYHLSWGMIPLSYAVPLEVYIKEFALEGVILSGGNDLNDFVSSPLNKKRDAYEKEILRYAKQYAFPLLGVCRGAQMIAYEGGSLLEFCEGHVGRHEIFWEEGEGEIIGSEHQLAIKELGAGLIPLARSCEGLVEAFRGEEAPLFGMMWHPERQDKRSAGTLKMVELFSQALQKREGHHHHHH", "soluble on expression in E. coli": "soluble"}
{"sequence": "MGSDKIHHHHHHMKTVKTHITQLLHAMNKGIFEKEHPIALSLLSAISGESIFFLGPPGVAKSLIARRLKLAFDQSTAFEYLMSRFSTPDEIFGPVSISKLKDEDKYERIIEGYLPSATIVFLDEIWKAGPSIQNSLLTVINEKVYRNGQYTIQLPLKGLIAASNELPAQGEGLEALWDRFLIRYFIGNIEQEFAFDQMIASVNDMEAEIPTGLSITEEQYTDWRTQISQIKIHYTVFELIHSIKRQIEKYNIQKEEVPHSTLYISDRRWKKIISLLRTSAFLNETDTIRFSDCTLLLHCLWNEIEQIPIIEQMVSSALDECISHYLCGERTLEQKLSSIREDMKSEHSLRETKDPALQIVDTFYHQIERYPVAGNLLIFASDYQSLQKDTQKLFYVQRDKYRPVNWILKVYDHVRNRNISQSAIVSLKKGTRSVFINNQEYPLACNAGYDIAYPQEASLPFEFRFQEVIDLYHNRENELKRMTDIELTYCKEHLFMDDKQRNMVKQILNRQKEMLEIYQNEIREIAYTHGLENKEY", "soluble on expression in E. coli": "not soluble"}
{"sequence": "MGSDKIHHHHHHMKTYLVGGSVRDEILGLPVTDHDYVVVGVSPEEMVHLGFRPVGKDFPVFLHPQSQEQYALARTERKVSRGYKGFEVYASPEVTLQEDLARRDLTINAIAKDEYGNIIDPFGGIADLEAGVLRHIGPAFTEDPVRVLRTARFAARFGFHIAPETLALMNEMVHNGEVDALVSERVWQEIARGLMERHPSRMFYALRDCGALTRIMPEVDALFGVPQPPQHHPEIDTGVHVMMVIDYAASRNYSLQVRFAALTHDLGKGTTPPEEWPRHIGHEARSVRLVQGLCERINPPNEMRNLALLVARYHGDVHRAAELRPVTIANLLQGVDAYRKPERFEEFLQACACDFHGRPGYATRPYPQADRLREAFQAARSVDAGAIAKEMARNVSDPSRLPVAINTRVSETRIAEIRNRLGSLA", "soluble on expression in E. coli": "not soluble"}
{"sequence": "TGSIGSAARKILLAKTDVQLTLYSRRADRLKLIVDRETAVAGSVTDDDQLDQAIKGQDFVFVALNGDMDSFAAHIISAMERNGIQRLIFITTMGIYQEIPAWLGDSPEPYHNPILKSFRQAADRIEQSDLNYTIIRPGWYNN", "soluble on expression in E. coli": "not soluble"}
{"sequence": "MLPAWGTSTEATASHAGWDGDDEGDIRAAYTEDEKKENIPPISLTSVSTNGAYPGQKRRRSESVRTLKPECPPEETQRLRQRRRISATDATQSSRTMNVIEDRKPRVNRARKSQDAPSTSTCGFETPVGTKRKSKAADSQKPPKQSKLRKIDEASTSKAVDNSSKDGKKTTKPAVTQSNRRRSGLSLRPVPIETIFSESSGRESSTEDEADVSHQQ", "soluble on expression in E. coli": "not soluble"}
{"sequence": "HLGEHEVPGHLMDFVTTYSTNLAVPQRRDADDERVLAGKKLFYQANCVACHVPKYVTRRDAAQPEHRFQLIWPYTDMLLHDMGDGLADGVSEEQANGREWRTPPLWGIGLTRLVNPSATWLHDGRARTLLEAVLWHGGEAQAARDRVVAMSPGERADLIRFLESL", "soluble on expression in E. coli": "not soluble"}
{"sequence": "MVTCGSIFIIRIACKDKKGQASGKDNKEKRVFRAVTGNKSESYFPFGHIFIFSQGATRTDEKSFLLSEDYEPKTVGLRCVFWRKHAREIFRFGSKNFYFSRHNEKIFAPRLFQPYSGFFSNDKREKVSMCHR", "soluble on expression in E. coli": "not soluble"}
{"sequence": "MGSDKIHHHHHHMPSRRGFLAGLLASSVTPTATWADVGAPAYLSAGKDALGLFVMAGLSAAGEVLFRHPLPDRGHAASAHPTRPEAVAFARRPGRFADVIDCRSGAQLARLEPPEGHHFYGHGVFSPEGEVLYTTENDYARGAGVIGVWNAGDYHRIGQFSSGGIGPHEMLLRRDAPGLVVANGGIETHPESGRAKLNIPFMRPNLSYLRLSGEIQHQMELPADLHKNSIRHIAVRSDGAVGFAMQWQGDLGADVPIVGLHQPGSAPRLMAEDDPRLRNLNGYGGSIAFSGDETAIAVTSPRGGVVQVMDCTSGALQAEHALSDVCGLAPLKDGFLVSTGTGIMAQIGTEVTTLTQAPLAWDNHLIALSSAASAPRQP", "soluble on expression in E. coli": "not soluble"}
{"sequence": "MTEIVERMKKKNIVKPIVYGNTATPFGYKRDSDQHTHQWTVFLKPYLIEDPTKWIRKVQFKLHESYAVPYRVVEKPPYEVTETGWGEFEIQIRIYFVDPNEKPITAFHYLRLFQPTIELPSGNQIVCMEFYDEIIFQEPTVQMYKALQASDGKRPDKQAFLNDIEQVKTRTRELGEVAQKEIAAEIEDLRESLKDAHKMIVKYNTELAEQE", "soluble on expression in E. coli": "not soluble"}
{"sequence": "QQLSMELESARAFNASVLANVAEGILVVDEAGNISFANPAICQLLNASVDQLRGTQVLDYVIEPQVSSWLESGFYQHYRKADTYRVHDAILRTAQGSQLPVALSCAALPAEQKAMVLTVLDMS", "soluble on expression in E. coli": "not soluble"}
{"sequence": "MTTNRETVLSMAKRKRSVVAINASGWRSNGEVMGLQIKDGVLYKDYDAAGYTGAEACVFFDDGTMKVYGNREVDADILISKGARNSFAFGIWLVKDSKPRTAQMTTWADLNVKHPRQAIGQRSDGTLVIITVDGRSLRSSGITAYDMPSLFLSEGCINAFLLDGGGSSQTAVEGKYINNISDGIERAVVDTLTISYPDDLEHHHHHH", "soluble on expression in E. coli": "not soluble"}
{"sequence": "MAHHHHHHMESKVPLFLYFMVTNHPEVKQYTELLCHQVDQANRRLKDENFGDVYQEFGKDAGLAIKLGMVDCLQEPGLMAKFHIDPHMFPLIYFVRNKVFCDKMVGVVTESHVKEAVEAFIDDAKLESKSESEGASLFQKVRRQDDDDENAMTLIAAAHGKMQAGDPAKGKQLFEKALRMSMEDMEVVKKRYGVPNKKMTPELWAKLKREPCYNSAPEALCGLAMCAMASKQRDEAFRLAARVREEFPFAPQDMRGVAEAVVRIELIQVVDYDPDTDNYMRLLKFDELVSEPAQFYKHHLKRAVAFYVEGVAGQAIEECIRLIRAEPKLLSALKEGGIVPNDLRLGPTAVTPARQVIRAIFEALGPTNERVEKGRKLLQLYL", "soluble on expression in E. coli": "not soluble"}
{"sequence": "MVARRKGERVVRKNEVENVQQRACANRRERQRTKELNDAFTLLRKLIPSMPSDKMSKIHTLRIATDYISFLDEMQKNGCKLYGHSIFDEKRGYNLQSAFNMWRGNNGYTPIAGPSQLPPLQSAHIPPPAPSSIPPHCLMPQPWYQTCPPPKQEFHELCPISTPNPNSNPNQLTPIHWQ", "soluble on expression in E. coli": "not soluble"}
{"sequence": "MILELDCGNSLIKWRVIEGAARSVAGGLAESDDALVEQLTSQQALPVRACRLVSVRSEQETSQLVARLEQLFPVSALVASSGKQLAGVRNGYLDYQRLGLDRWLALVAAHHLAKKACLVIDLGTAVTSDLVAADGVHLGGYICPGMTLMRSQLRTHTRRIRYDDAEARRALASLQPGQATAEAVERGCLLMLRGFVREQYAMACELLGPDCEIFLTGGDAELVRDELAGARIMPDLVFVGLALACPIE", "soluble on expression in E. coli": "not soluble"}
{"sequence": "MIRIENLTKKFDRKVLDNITISLPKNRVSVIVGINGSGKTTLLDCIVGLKDATSGKVFIESYSNDSEKFKECIFYIPSEFYLPNYMTGKEYLNFVLSRYRCSDIERIDDFLELFDLKFAGTNLIESYSFGMKKKIQIVAAALANTDYILGDEIFNGLDFETTLLTLELFENLSREVGIVIISHNKLIIERFSENILLMSNGNLTPFLGASENLEKEVISTEKIHEKIKYIKGYHPINRVIY", "soluble on expression in E. coli": "not soluble"}
{"sequence": "MTNQKQTTHFGFKSVDWNEKEKKVAEVFHSVAKNYDRMNDLMSLGIHHLWKRYTIELSHVRPGQSVLDLAGGSGDLTRLLLQKVGDSGQVILADINAAMLHVGRDRLLDEGLFKNIRYVQGNAQCLPFADNSFHCITMGFGLRNVTDKDEALQSMYRVCKPGGKLMVLEFSTPVFPGLKPVYDWYSFNILPKIGKFVANDEASYQYLAESIRMHPDQETLKAMIERVGFEDCHYHNLSGGIVALHIAYKYLEHHHHHH", "soluble on expression in E. coli": "not soluble"}
{"sequence": "MGSDKIHHHHHHMEHNRVLRLEHGINFRELGGYENTAGQTIKWQKLLRCGGMSLLTNRDLTYLDNYGLRYDIDLRQANEAEMSPDRYPKNTKYINTSVYPFTDNRRFDRRLKRLIKRMVVDDSFNAQTYAQMITDSHAVKVWQNLFATLLANDQPDQSVLFHCAAGKDRTGVAGALIMTALDVPRETIMQDYLLTNAVFMAADSMDTATIITKANAGDLASQFNVAMAVEADNMKMVFRVFDDLYGNGIGYLREVLGLSVADINNLRQLYLND", "soluble on expression in E. coli": "not soluble"}
